Measurements reported in article PMC11096372.

Molecular target: Cas8b;Cas7b;Cas5b;Cas6b;Cas11b (Synechocystis sp. PCC 6714;Synechocystis sp. PCC 6714;Synechocystis sp. PCC 6714;Synechocystis sp. PCC 6714;Synechocystis sp. PCC 6714) (UniProt A0A068N831+A0A068N458+A0A068N1Y0+A0A068N831)
Test: EMSA
Details: crRNA-loaded Cascade; EMSA: 10 nM labeled DNA, Cascade 0-200 nM, 20 mM HEPES pH 7.5, 100 mM NaCl, 25 C, 1 h; 6% acrylamide gel, 0.5x TBE, cold room; Hill fit

For “TAATACGACTCACTATAGGTCGCGGATCCACATTTATCACCGTGTCCCCAATCTGGATATTTTGTGTCTCGAGCACCACCGCTGAGCAATAACTAGC (double strand) [ACA-PAM 97 bp (synPAM-9)]”, which Kd is on record?
Its Kd is 0.0562 µM.

For “TAATACGACTCACTATAGGTCGCGGATCCACCTTTATCACCGTGTCCCCAATCTGGATATTTTGTGTCTCGAGCACCACCGCTGAGCAATAACTAGC (double strand) [ACC-PAM 97 bp (synPAM-11)]”, which Kd is on record?
Its Kd is 0.0582 µM.

For “TAATACGACTCACTATAGGTCGCGGATCCACGTTTATCACCGTGTCCCCAATCTGGATATTTTGTGTCTCGAGCACCACCGCTGAGCAATAACTAGC (double strand) [ACG-PAM 97 bp (synPAM-10)]”, which Kd is on record?
The Kd was 0.0206 µM.

“TAATACGACTCACTATAGGTCGCGGATCCACTTTTATCACCGTGTCCCCAATCTGGATATTTTGTGTCTCGAGCACCACCGCTGAGCAATAACTAGC (double strand) [ACT-PAM 97 bp (synPAM-12)]” was tested. Which Kd did it give?
The Kd was 0.14 µM.

How did the Kd turn out when “TAATACGACTCACTATAGGTCGCGGATCCATATTTATCACCGTGTCCCCAATCTGGATATTTTGTGTCTCGAGCACCACCGCTGAGCAATAACTAGC (double strand) [ATA-PAM 97 bp (synPAM-13)]” was run?
Its Kd is 0.024 µM.

How did the Kd turn out when “TAATACGACTCACTATAGGTCGCGGATCCATCTTTATCACCGTGTCCCCAATCTGGATATTTTGTGTCTCGAGCACCACCGCTGAGCAATAACTAGC (double strand) [ATC-PAM 97 bp (synPAM-15)]” was run?
The Kd was 0.0477 µM.

“TAATACGACTCACTATAGGTCGCGGATCCATGTTTATCACCGTGTCCCCAATCTGGATATTTTGTGTCTCGAGCACCACCGCTGAGCAATAACTAGC (double strand) [ATG-PAM 97 bp (synPAM-14)]” was tested. Which Kd did it give?
The Kd was 0.018 µM.

For “TAATACGACTCACTATAGGTCGCGGATCCATTTTTATCACCGTGTCCCCAATCTGGATATTTTGTGTCTCGAGCACCACCGCTGAGCAATAACTAGC (double strand) [ATT-PAM 97 bp (synPAM-16)]”, which Kd is on record?
The Kd was 0.0597 µM.
